Data on 1 variant can be found in IntAct's records for PubMed 24286120.

To fix the notation:
B1: Malignant fibrous histiocytoma-amplified sequence 1 (Homo sapiens), Q9Y4C4 (parent)
chain: MAGMDSGNLKTARLWRDAALRARKLRSNLRQLTLTAAGACPGAGADALESPASPQLVLPANLGDIEALNLGNNGLEEVPEGLGSALGSLRVLVLRRNRFARLPPAVAELGHHLTELDVSHNRLTALGAEVVSALRELRKLNLSHNQLPALPAQLGALAHLEELDVSFNRLAHLPDSLSCLSRLRTLDVDHNQLTAFPRQLLQLVALEELDVSSNRLRGLPEDISALRALKILWLSGAELGTLPAGFCELASLESLMLDNNGLQALPAQFSCLQRLKMLNLSSNLFEEFPAALLPLAGLEELYLSRNQLTSVPSLISGLGRLLTLWLDNNRIRYLPDSIVELTGLEELVLQGNQIAVLPDHFGQLSRVGLWKIKDNPLIQPPYEVCMKGIPYIAAYQKELAHSQPAVQPRLKLLLMGHKAAGKTLLRHCLTEERVEGCPGGGDKEKCYPPSPPPVSKGIEVTSWTADASRGLRFIVYDLAGDESYEVIQPFFLSPGALYVLVVNLATYEPRHFPTTVGSFLHRVGARVPHAVVCIVGTHADLCGERELEEKCLDIHRQIALQEKHDAEGLSRLAKVVDEALARDFELRSASPHAAYYGVSDKNLRRRKAHFQYLLNHRLQILSPVLPVSCRDPRHLRRLRDKLLSVAEHREIFPNLHRVLPRSWQVLEELHFQPPQAQRLWLSWWDSARLGLQAGLTEDRLQSALSYLHESGKLLYFEDSPALKEHVFHNLTRLIDILNVFFQRDPSLLLHKLLLGTSGEGKAEGESSPPMARSTPSQELLRATQLHQYVEGFLLHGLLPAHVIRLLLKPHVQAQQDLQLLLELLEKMGLCYCLNKPKGKPLNGSTAWYKFPCYVQNEVPHAEAWINGTNLAGQSFVAEQLQIEYSFPFTFPLGLFARYSVQINSHVVHRSDGKFQIFAYRGKVPVVVSYRPARGVLQPDTLSIASHASLPNIWTAWQAITPLVEELNVLLQEWPGLHYTVHILCSKCLKRGSPNPHAFPGELLSQPRPEGVAEIICPKNGSERVNVALVYPPTPTVISPCSKKNVGEKHRNQ

In this assay the parent is B1. The conditions noted are these: with ch60_human HSPD1, P10809.
Sequence of ch60_human HSPD1, P10809 (P10809 whole entry): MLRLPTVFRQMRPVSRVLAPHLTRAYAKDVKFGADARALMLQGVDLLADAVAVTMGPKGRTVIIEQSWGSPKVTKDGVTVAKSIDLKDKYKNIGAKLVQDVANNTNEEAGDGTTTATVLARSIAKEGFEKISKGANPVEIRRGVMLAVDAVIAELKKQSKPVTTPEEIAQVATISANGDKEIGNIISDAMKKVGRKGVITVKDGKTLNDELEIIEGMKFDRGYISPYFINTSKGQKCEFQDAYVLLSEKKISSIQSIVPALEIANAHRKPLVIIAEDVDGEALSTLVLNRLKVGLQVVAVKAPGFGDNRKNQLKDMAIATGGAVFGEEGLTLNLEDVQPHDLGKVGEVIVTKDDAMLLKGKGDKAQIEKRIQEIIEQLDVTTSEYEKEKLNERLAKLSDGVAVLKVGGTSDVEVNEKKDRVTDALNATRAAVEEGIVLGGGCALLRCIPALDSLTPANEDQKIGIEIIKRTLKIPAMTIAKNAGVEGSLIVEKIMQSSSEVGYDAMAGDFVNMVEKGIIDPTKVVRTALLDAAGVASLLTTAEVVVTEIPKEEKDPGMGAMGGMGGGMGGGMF
As to K422A, the “effect of a mutation on the interaction” value was “increasing interaction”.
